Biological target: T1, CFP-Ras1 (S. pombe, UniProt P08647 1-219)
T1 construct: Ras1, small GTPase of Schizosaccharomyces pombe; ORF amplified from the start codon to the stop codon and cloned behind CFP; also called Ras1-GTP; source: S. pombe (strain JY1618, Δras1Δgap1), expressed from pREP4x (nmt1 promoter), in living cells; not shown: CFP, N-terminal, kept
T1 sequence (looked up): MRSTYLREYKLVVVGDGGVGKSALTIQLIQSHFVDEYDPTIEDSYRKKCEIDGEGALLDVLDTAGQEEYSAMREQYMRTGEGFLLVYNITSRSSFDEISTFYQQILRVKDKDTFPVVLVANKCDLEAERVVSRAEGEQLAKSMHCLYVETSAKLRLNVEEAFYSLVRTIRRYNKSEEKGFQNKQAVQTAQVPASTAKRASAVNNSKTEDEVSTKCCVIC
Experiment: FRET or BRET; FACS-based FRET (405 nm excitation, 585/42 nm emission), living S. pombe cells co-expressing CFP and YFP fusions; percent of cells with a FRET signal over 0-8 h after 10 μM pheromone
Conditions: partners not purified

fold increase of the percent of cells with a FRET signal, 30 min pheromone against time 0: 2 fold
B1: Gap1-YFP (natural protein, S. pombe, UniProt P33277 1-766, looked up)
chain: MTKRHSGTLSSSVLPQTNRLSLLRNRESTSVLYTIDLDMESDVEDAFFHLDRELHDLKQQISSQSKQNFVLERDVRYLDSKIALLIQNRMAQEEQHEFAKRLNDNYNAVKGSFPDDRKLQLYGALFFLLQSEPAYIASLVRRVKLFNMDALLQIVMFNIYGNQYESREEHLLLSLFQMVLTTEFEATSDVLSLLRANTPVSRMLTTYTRRGPGQAYLRSILYQCINDVAIHPDLQLDIHPLSVYRYLVNTGQLSPSEDDNLLTNEEVSEFPAVKNAIQERSAQLLLLTKRFLDAVLNSIDEIPYGIRWVCKLIRNLTNRLFPSISDSTICSLIGGFFFLRFVNPAIISPQTSMLLDSCPSDNVRKTLATIAKIIQSVANGTSSTKTHLDVSFQPMLKEYEEKVHNLLRKLGNVGDFFEALELDQYIALSKKSLALEMTVNEIYLTHEIILENLDNLYDPDSHVHLILQELGEPCKSVPQEDNCLVTLPLYNRWDSSIPDLKQNLKVTREDILYVDAKTLFIQLLRLLPSGHPATRVPLDLPLIADSVSSLKSMSLMKKGIRAIELLDELSTLRLVDKENRYEPLTSEVEKEFIDLDALYERIRAERDALQDVHRAICDHNEYLQTQLQIYGSYLNNARSQIKPSHSDSKGFSRGVGVVGIKPKNIKSSNTVKLSSQQLKKESVLLNCTIPEFNVSNTYFTFSSPSTDNFVIAVYQRGHSKVLVEVCICLDDVLQRRYASNPVVDLGFLTFEANKLYHLFEQLFLRK
notes: ORF amplified from the start codon, stop codon removed, cloned in front of YFP; source: S. pombe, expressed from pREP3x (nmt1 promoter), in living cells; not shown: YFP, C-terminal, kept

— article PMC3797800, “The Coordination of Cell Growth during Fission Yeast Mating Requires Ras1-GTP Hydrolysis” (PLoS ONE, 2013)
